B1: TMEM175 (parent)
chain: SCTIIFLASIFQLAMWTTALLHQA
B2: ADD1 (parent)
chain: GEGTGSPPKWQIGEQEFEALMRML

Variants of: B1
Test: protein stability index of a GFP-peptide fusion (GPS, HEK-293T) (PSI 1-6); higher = more stable
Settings: c terminus: a fixed tail appended
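Also: lentivirally expressed fusions sorted by FACS into six bins by GFP to DsRed ratio, PSI derived from sequencing read proportions per bin multiplied by bin number.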

Protein stability index of substitutions, site by site:
T17: F 1.74 | D 3.83 | A 1.59 | E 2.36
Q12: D 3.29 | N 3.72 | L 3.15 | C 3.71 | I 3.51 | S 2.75 | F 2.61 | T 3.43 | H 3.19 | P 2.3 | M 2.6 | G 2.9 | A 3.29 | Y 1.89 | E 3.39 | V 2.25
F6: D 3.81 | T 4.09 | K 2.52 | P 2.59 | Q 2.14 | E 2.76 | R 2.56 | A 4.41 | N 2.86 | V 2.74 | C 3.39 | S 1.02
M15: S 2.48 | P 3.25 | K 2.96 | D 3.28 | L 2.53 | Y 2.97 | F 2.73 | T 3.17 | I 2.79 | R 1.69 | A 3.24 | N 2.51 | W 3.1 | Q 2.52 | E 3.53 | H 2.49 | V 3.45
L7: W 3.1 | E 2.34 | N 3.78 | R 3.25 | A 4.52 | F 1.87 | D 4.13 | Q 3.37 | M 2.79 | G 4.01 | C 3.2 | P 2.79 | H 3.64 | V 3.55 | I 3.83 | K 2.48 | S 2.77 | T 3.83
L13: S 3.46 | A 2.85 | T 2.49 | V 3.31 | E 2.24 | Y 2.81 | N 3.15 | C 2.76 | D 2.59 | I 2.5 | R 1.63 | H 3.13 | M 2.97 | P 2.24 | Q 3.08 | F 3.07
S1: Q 1.64 | I 3.24 | K 2.29 | W 2.14 | D 2.62 | A 2.72 | M 2.14 | R 4.91 | T 2.86 | G 2.3 | L 2.96 | Y 1.75 | H 2.8 | N 2.02 | C 3.31 | E 1.31
A8: N 4.58 | P 2.84 | G 3.09 | V 2.62 | Y 3.74 | D 3.72 | S 3 | C 2.98 | I 4.22 | H 3.28 | Q 3.65 | T 4.12 | L 3.28 | E 2.8 | K 3.08 | F 3.99
A14: K 3.08 | D 4 | N 2.62 | R 3.53 | P 2.29 | S 2.58 | T 2.73 | W 2.09 | H 3 | E 1.9 | M 3.19 | Y 4 | C 3.07 | Q 4.22 | F 2.76 | L 4.29 | G 3.94 | I 3.4
C2: R 2.3 | Q 2.54 | H 3.33 | D 3.24 | E 2.64 | G 3.98 | V 3.64 | Y 2.89 | I 1.73 | F 2.66 | A 3.34 | M 2.59 | N 4.36 | W 2.26 | K 3.34 | P 1.95 | L 2.87
I4: V 2.35 | A 3.22 | F 2.9 | D 3.54 | G 2.7 | H 3.04 | T 2.72 | N 3 | K 3.01 | Y 2.23 | P 4.19 | W 2.14
T3: H 2.04 | W 3.07 | M 2.56 | S 2.57 | Y 4.1 | D 2.86 | L 2.92 | E 1.72 | A 3.36 | I 3.33 | V 2.11 | K 2.84 | Q 3 | F 2.75
W16: A 3.29 | P 2.53 | S 2.58 | Y 3.76 | C 3.44 | H 1.8 | R 2.51 | L 2.94 | N 3.23 | Q 1.12 | G 2.72 | F 1.76 | M 3.11 | K 2.44 | I 3.15 | V 3.96
S9: W 4.47 | M 2.49 | K 3.56 | P 2.31 | T 2.5 | N 3.06 | Q 4.14 | Y 2.66 | E 4.07 | A 3.6 | G 2.5 | R 2.78 | L 3.52
F11: M 1.87 | E 3.04 | I 2.56 | V 2.09 | Y 1.79 | L 2.74 | Q 3.1 | D 2.62 | C 2.29 | N 2.97 | T 3.38 | A 3.92 | W 2.6 | S 2.19 | P 2.96 | R 5.97 | K 3.11
I5: K 2.92 | T 2.35 | V 1.82 | M 3.44 | A 2.65 | H 3.05 | P 2.58 | L 1.46 | R 1.6 | F 2.81 | G 2.33 | N 2.28
I10: H 3.64 | N 2.59 | G 2.65 | A 3.45 | C 1.64 | K 3.74 | M 3.48 | Y 3.52 | V 3.47 | Q 2.91 | W 2.29 | D 1.94 | P 2.65 | T 3.72 | R 2.81 | S 2.97

Variants of: B2
Test: as above
Settings: c terminus: a fixed tail appended

Protein stability index of substitutions, site by site:
L24: A 3.83 | C 3.52 | R 4.34 | M 3.89 | G 4.1 | N 4.13 | H 4.32 | Y 2.68 | T 3.8 | Q 4.74 | I 3.52 | V 3.06 | W 3.57 | S 3.92 | E 4.98 | P 4.38 | D 4.89 | F 3.42 | K 4.67
M23: H 3.1 | S 4.68 | L 2.74 | E 5.04 | G 4.56 | T 3.38 | N 4.8 | A 3.58 | K 4.49 | Q 4.44 | P 4.76 | R 4.26 | F 2.52 | V 3.43 | I 2.16 | C 3.74 | D 5.08 | Y 2.96
M21: F 3.47 | C 3.18 | N 3.71 | Q 3.83 | T 3.13 | H 4.16 | E 4.16 | P 4.2 | W 2.83 | K 3.49 | L 2.82 | A 3.35 | V 3.11 | R 3.18 | I 2.99 | D 4.41 | Y 3.09 | G 3.87 | S 3.66
L20: V 3.48 | R 4.19 | W 3.61 | T 3.63 | Q 5.25 | S 5.12 | N 4.89 | Y 3.97 | P 4.45 | M 3.64
R22: S 3.44 | H 2.92 | D 3.61 | M 2.55 | C 2.21 | N 3.62 | L 2.09 | G 3.09 | V 2.14 | F 2.79 | T 3 | P 3.75 | Q 3.3 | A 3.18 | E 3.39 | W 2.2 | I 2.49 | Y 2.37

— the supplement of paper PMC10567573
